From patent US20250320284A1 (AC IMMUNE, published 2025) come the findings set out here.

As usually defined, the koff is the first-order rate constant of dissociation. Higher therefore signals fast dissociation. What is called kon is the rate constant with which the complex forms. Lower therefore signals slower complex formation. As usually defined, the EC50 is the concentration giving half of the maximal effect. Higher therefore signals weaker potency.

Test [1] has as its target T1, PYD domain of human ASC (human, UniProt Q9ULZ3 1-91, limits assumed).
T1 construct: biotinylated in BLI; His/MBP-tagged in the alanine ELISA; also called hPYD; human PYD
Nature of the test: BLI binning on PYD, competitor 2626B9D3-AB1.

Test [2] has as its target T1, PYD domain of human ASC. Put plainly: BLI binning on PYD, competitor 22D3A6-AB1.
The target of test [3] is T2, human ASC (apoptosis associated speck-like protein containing a caspase-recruitment domain) (human, UniProt Q9ULZ3 1-195).
T2 construct: recombinant hASC in ELISA and SPR; endogenous ASC (cytoplasmic or specks) in Western blot and immunofluorescence; also called hASC; PYCARD
Put plainly: SPR affinity mode, mAb captured.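 Also: Single-cycle SPR kinetics with mAbs captured on goat anti-mouse antibody, double-referenced against blank flow cell and buffer cycle, fitted by a 1:1 kinetic model.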

In test [4] the target is T3, mouse ASC (mouse, UniProt Q9EPB4 1-193).
T3 construct: recombinant mASC in ELISA and SPR; endogenous ASC of J774.A1 cells in Western blot and immunofluorescence; also called mASC
T3 sequence: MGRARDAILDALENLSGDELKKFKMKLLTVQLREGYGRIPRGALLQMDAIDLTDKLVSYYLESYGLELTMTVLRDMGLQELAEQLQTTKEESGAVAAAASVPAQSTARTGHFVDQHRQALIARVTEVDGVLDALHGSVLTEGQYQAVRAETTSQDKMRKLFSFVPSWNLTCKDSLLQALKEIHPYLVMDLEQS
Nature of the test: SPR affinity mode, mAb captured.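 Also: Single-cycle SPR kinetics with mAbs captured on goat anti-mouse antibody, double-referenced against blank flow cell and buffer cycle, fitted by a 1:1 kinetic model.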

For test [5], the target named is T1, PYD domain of human ASC. Put plainly: BLI binning on PYD, competitor 31F10C5-AB1.
Test [6] addresses T3, mouse ASC. Put plainly: cell-based or functional assay.
Test [7] addresses T2, human ASC (apoptosis associated …). Put plainly: ELISA, coated hASC.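 Also: antibody binding to plate-coated recombinant human ASC, read as phosphatase substrate absorbance, EC50 from four-parameter variable-slope fit.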 A general note: An ELISA detects its analyte on a solid surface through an enzyme-linked reagent.
Test [8] shares this target. Nature of the test: cell-based or functional assay.
In test [9] the target is T3, mouse ASC. Nature of the test: cell-based or functional assay. This is another data set of the same source.
Test [10] deals with T1, PYD domain of human ASC. Nature of the test: BLI binning on PYD, competitor 2610H7D3-AB1.
In test [11] the target is T1, PYD domain of human ASC. Nature of the test: BLI binning on PYD, competitor 23E5F7-AB2.
Test [12] addresses T4, CARD domain of human ASC (human, UniProt Q9ULZ3 107-195).
T4 construct: biotinylated in BLI; also called hCARD; human CARD
T4 sequence: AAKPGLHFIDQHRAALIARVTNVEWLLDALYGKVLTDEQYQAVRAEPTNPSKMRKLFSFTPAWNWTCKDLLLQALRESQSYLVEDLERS
Put plainly: sandwich ELISA on MBP-tagged protein captured by anti-MBP antibody, signal as % of hPYD-WT.

The target in test [13] is T1, PYD domain of human ASC. Put plainly: ELISA, coated hPYD.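 Also: monoclonal antibody binding to plate-coated human ASC PYD measured by ELISA, with a phosphatase substrate absorbance read-out and EC50 from a variable slope curve fit.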
For test [14], the target named is T1, PYD domain of human ASC. Put plainly: BLI binning on PYD, competitor 416E6G4-AB1.
The target of test [15] is T3, mouse ASC. Put plainly: ELISA, coated mASC.
For test [16], the target named is T1, PYD domain of human ASC. Put plainly: BLI binning on PYD, competitor 401H9B7-AB1.
The target of test [17] is T1, PYD domain of human ASC. Nature of the test: BLI binning on PYD, competitor 26A1G2-AB1.
Test [18] concerns the target T1, PYD domain of human ASC. Nature of the test: BLI binning on PYD, competitor 2617C3A8-AB1.
The target in test [19] is T4, CARD domain of human ASC. Put plainly: BLI binning on CARD, competitor 2609F4A9-Ab1.
The target in test [20] is T4, CARD domain of human ASC. Nature of the test: BLI binning on CARD, competitor 2504F3D9-Ab1.
The target in test [21] is T4, CARD domain of human ASC. Put plainly: BLI binning on CARD, competitor 2629E8D1-Ab1.
Test [22] concerns the target T4, CARD domain of human ASC. Nature of the test: ELISA, coated hCARD.
Test [23] deals with T4, CARD domain of human ASC. Put plainly: BLI binning on CARD, competitor 18F4C12-Ab1.
Test [24] concerns the target T4, CARD domain of human ASC. Nature of the test: BLI binning on CARD, competitor 32B6C7-Ab1.
For test [25], the target named is T3, mouse ASC. Put plainly: SPR affinity mode, steady-state fit, apparent KD.
Test [26] deals with T4, CARD domain of human ASC. Nature of the test: BLI binning on CARD, competitor 2622E12F11-Ab1.
Test [27] concerns the target T2, human ASC (apoptosis associated …). Nature of the test: cell-based or functional assay. This is another data set of the same source.
In test [28] the target is T3, mouse ASC. Nature of the test: ELISA, coated mASC; ELISA on mASC protein.
In test [29] the target is T3, mouse ASC. Nature of the test: SPR affinity mode, steady-state fit, apparent KD; SPR affinity mode, mAb captured, mASC in solution; steady-state fit, apparent KD.

T1 sequence (Q9ULZ3 1-91 limits assumed): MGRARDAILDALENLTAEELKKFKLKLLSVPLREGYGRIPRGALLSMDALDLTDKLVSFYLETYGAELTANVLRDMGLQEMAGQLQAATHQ

B1: ACI-8016-26A1G2-AB1 (antibody, V domains shown)
VH: QVQLQQSGAELARPGASVKLSCKASGYNFTTYGINWVKQRTGQGLEWIGKIYPRSGNTHNNENFKGKATLTADTSSSTAYMDLRSLTSEDSAVYFCARSPYAFYSSSYWYFDVWGTGTTVTVSS
VL: DIKMTQSPSSMYASLGERVTITCKASQDIKSYLSWYQQKPWKSPKTLIYYATSLADGVPSRFSGSGSGQDYSLTISSLESDDTATYYCLQHGESPFTFGSGTKLEIK
notes: also called 936.26A1G2; ACI-8016-26A1G2-AB1_hmG2c
B1: the normalized binding response is 33% with PYD domain of human ASC [1]; 23% in the test with PYD domain of human ASC [2]; 19% with PYD domain of human ASC [5]; 22% with PYD domain of human ASC [10]; 18% with PYD domain of human ASC [11]; 14% with PYD domain of human ASC [14]. Further, the normalized binding response with PYD domain of human ASC [16] was 63%; with PYD domain of human ASC [17], 3%; in the test with PYD domain of human ASC [18], 23%. Moreover, the Kd in test [3] was 1.87 nM; with mouse ASC [4], 3.81 nM. The koff came out at 8.05e-05 s⁻¹ in test [3] and 0.000101 s⁻¹ with mouse ASC [4]. Moreover, the kon is 42000 M⁻¹ s⁻¹ in test [3] and 27600 M⁻¹ s⁻¹ in the test with mouse ASC [4]. In the test with mouse ASC [6], the “% IL-1β inhibition, mouse primary microglia, 420 nM mAb” value (“% IL-1β inhibition” for short) was determined as 52.1%. Also, the EC50 in [7] amounted to 0.13 nM; with PYD domain of human ASC [13] it was 0.12 nM; with mouse ASC [15] it was 0.15 nM. Moreover, the “Human ASC polymerization assay, IC50” value in [8] turned out to be 4.9 nM. Besides, the “Mouse ASC polymerization assay, IC50” value with mouse ASC [9] was found to be 24.8 nM. Further, the binding result with CARD domain of human ASC [12] is listed as “no binding”.

B2: ACI-8016-18F4C12-AB1 (antibody, V domains shown)
VH: EVQLQQSGAELVRPGSSVKMTCKTSGYSFSSYGMSWVKQRPGQGLEWIGYIYVGNGYTEYNEKFKGKATLTSDTSSSTVYMDFRSLTSEDSAIYFCARLNRGRALDFWGQGTTLTVSS
VL: DIVLTQSPASLAVSLGQRATISCRASQSVSTSGHSYMHWYQQKPRQSPKLLIHFASNLESGVPARFTGSGSGTDFTLNIHPVEEEDAATYYCQHSWDLPYTFGGGTKLEIK
notes: also called 936.18F4C12
Take B2: the Kd was 0.7 nM in [3] and 54.5 nM with mouse ASC [25]. Also, the koff in [3] worked out at 0.000442 s⁻¹. In test [3], this molecule registered a kon of 621000 M⁻¹ s⁻¹. Besides, the normalized binding response with CARD domain of human ASC [19] was 68%; with CARD domain of human ASC [20] it was 33%; with CARD domain of human ASC [21] it was 69%; with CARD domain of human ASC [23] it was 0%; with CARD domain of human ASC [24] it was 78%; in the test with CARD domain of human ASC [26], -3%. For the same molecule, the EC50 was 0.18 nM in the test with CARD domain of human ASC [22], 0.19 nM in test [7] and 0.2 nM in the test with mouse ASC [15]. Besides, in the test with mouse ASC [6], the “% IL-1β inhibition” value came out at 82.8%. In addition, the “Human ASC polymerization assay, IC50” value in test [8] was found to be 4.7 nM. Further, the binding result with PYD domain of human ASC [13] is “no binding”. Further, in [27], the “IL-1β release, human monocytic cell line, IC50” value (shortened to “IL-1β release”) was determined as 15.9 nM.

B3: ACI-8016-2617C3A8-AB1 (antibody, V domains shown)
VH: QVQLQQSGVELARPGASVKLSCKASGSTFTSYSITWVKQRTGQGLEWIGVIYPRSDNTYYDEKFKGKATLTADKSSSTAYIELRSLTSEDSAVYFCATRDYWGQGTTLTVSS
VL: QIVLTQSPAIMSASPGEKVTITCSASSSVSYMYWFQQKPGTSPKFWIYSTSNLASGVPARFSGSGSGTSYSLTISRMEAEDAATYYCQQRSNYPFTFGSGTKLEIK
Regarding B3, the normalized binding response in the test with PYD domain of human ASC [1] was determined as 88%; in the test with PYD domain of human ASC [2], 1%; with PYD domain of human ASC [5], 2%; with PYD domain of human ASC [10], 0%; with PYD domain of human ASC [11], 1%; with PYD domain of human ASC [14] it was 4%. Moreover, the normalized binding response with PYD domain of human ASC [16] amounted to 75%; in the test with PYD domain of human ASC [17], 2%; with PYD domain of human ASC [18] it was 2%. Besides, the Kd (in [3]; with mouse ASC [4]) was 0.15 nM in each case. In addition, the koff in test [3] is 0.000118 s⁻¹; in the test with mouse ASC [4] it was 0.000162 s⁻¹. In addition, the figures for the kon (in test [3]; with mouse ASC [4]) were 810000 M⁻¹ s⁻¹ and 1.09e+06 M⁻¹ s⁻¹, respectively. Moreover, in the test with mouse ASC [6], the “% IL-1β inhibition” value was 94.3%. For the same molecule, the EC50 stood at 0.16 nM in test [7], 0.16 nM with PYD domain of human ASC [13] and 0.23 nM with mouse ASC [15]. Further, in [8], the “Human ASC polymerization assay, IC50” value is 6 nM. For the same molecule, the “Mouse ASC polymerization assay, IC50” value with mouse ASC [9] was determined as 35.7 nM. Besides, the binding result in the test with CARD domain of human ASC [12] was “no binding”. Besides, the “IL-1β release” value in test [27] was determined as 20.3 nM.

B4: ACI-8016-2629E8D1-AB1 (antibody, V domains shown)
VH: QVQLQQSDAELVKPGGSVKISCKVSGYTFTDHTIHWMKQRPEQGLEWIGNIYPGDGSTMYNEKFKGKATLTADKSSSTAYMHLNSLTSEDSAVYFCARPYYFGSASYYFGYWGQGTTLTVSS
VL: DIQMNQSPSSLSASLGDTITITCHASQNINVWLNWYQQKPGNIPKLLIYKASNLHTGVPSRFSGSGSGIGFTLTISSLQPEDIATYYCQQGQSYPLTFGGGTKLEIK
notes: also called ACI-8016-2629E8D1-AB1_rmG2a_01
Regarding B4, the Kd turned out to be 1.38 nM in test [3] and 134 nM with mouse ASC [29]. The koff in test [3] is 0.000182 s⁻¹. Also, in test [3], the kon worked out at 140000 M⁻¹ s⁻¹. Moreover, the normalized binding response was -2% with CARD domain of human ASC [19]; -2% with CARD domain of human ASC [20]; 0% with CARD domain of human ASC [21]; 95% with CARD domain of human ASC [23]; 3% with CARD domain of human ASC [24]; 102% with CARD domain of human ASC [26]. For the same molecule, the EC50 with mouse ASC [28] worked out at 0.22 nM; in the test with CARD domain of human ASC [22], 0.12 nM; in test [7], 0.11 nM. Moreover, in the test with mouse ASC [6], the “% IL-1β inhibition” value amounted to 88.8%. In [8], the “Human ASC polymerization assay, IC50” value came to 14.1 nM. In the test with PYD domain of human ASC [13], the binding result is reported as “no binding”. Besides, the “IL-1β release” value in test [27] is 14.9 nM.
